The source of these data is the nanobody polyreactivity screen of Harvey et al. (2022).

The data set can be described thus: yeast display, Sf9 membrane polyspecificity reagent, FACS + sequencing; frameworks hold sequencing errors. Put shortly:
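Genes from sorted yeast were amplified by colony PCR, read by MiSeq 2 × 250 sequencing and filtered on CDR length. These cells carried a synthetic nanobody library in Saccharomyces cerevisiae BJ5465 and were sorted by FACS into low and high (top ~1%) gates on anti-HA and streptavidin fluorescence. Polyreactivity is labelled according to the gate of origin.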
As to “QVQLVESGGGLVQAGGSLRLSCAASGRIFWTYAMGWYRQAPGKERELVASITWSGGTTYYADSVKGRFTISRDNAKNTVYLQMNSLKTEDTAVYYCNTDVLAPYDSGYWGQGTQVTVSS”, the “polyreactivity (PSR sort gate)” value is given as “low polyreactivity”. Turning to “QVQLVESGGGLVQAGGSLRLSCAASGRIFWVYAMGWYRQAPGKERELVAAISLSGGLTYYADSVKGRFTITRDNAKNTVYLQMNSLKPEDTAVYYCNAVYPKRGGGRIVDYWGEGTQVTVSS”, the “polyreactivity (PSR sort gate)” value was “high polyreactivity”. For “QVQLVESGGGLVQAGGSLRLSCAASGRIFWYYAMGWSRQAPGKERELVATISYGGGNTYYADSVKGRFTISRDNAKNTVYLQMNSLKPEDTAVYYCARVPYAYLPYKPFQQYSYDYWGQGTQVTVSS”, the “polyreactivity (PSR sort gate)” value is reported as “high polyreactivity”. On to “QVQLVESGGGLVQAGGSLRLSCAASGRIFWYYAMGWYRQAPGKERELVAAISRSGGSTYYADSVKGRFTISRDNAKNTVYLQMNSLKPEDTAVYYCAAGARAFDDDSWGQGTQVTVSS”, for which the “polyreactivity (PSR sort gate)” value is “low polyreactivity”. Consider “QVQLVESGGGLVQAGGSLRLSCAASGRIFWYYAMGWYRQAPGKERELVAAITKSGGSTYYADSVKGRFTISRDYAKNTVYLQMNSLKPEDTAVYYCAAPTWTRSSFDYWGQGTQVTVSS”, for which the “polyreactivity (PSR sort gate)” value is recorded as “high polyreactivity”. Consider “QVQLVESGGGLVQAGGSLRLSCAASGRIFWYYAMGWYRQAPGKERELVATISSGGRTNYADSVKGRCTISRDNAKNTVYLQMNSLKPEDTAVYYCAAKHPISTLYDYWGQGTQVTVSS”, for which the “polyreactivity (PSR sort gate)” value is “high polyreactivity”. Consider “QVQLVESGGGLVQAGGSLRLSCAASGRIFWYYAMGWYRQAPGKERELVATISYGGGNTYYADSVKGRFTISRDNAKNTVYLQMNSLKPEDTAVYYCARVPYAYLPYKPFQQYSYDYWGQGTQVTVSS”, for which the “polyreactivity (PSR sort gate)” value was “high polyreactivity”. Consider “QVQLVESGGGLVQAGGSLRLSCAASGRIFWYYAMVWYRQAPGKERELVATISSRSGSTYYADSVKGRFTISRDNAKNTVYLQMNSLKPEDTAVYYCAAGTPYYLGYRHNYWGQGTQVTVSS”, for which the “polyreactivity (PSR sort gate)” value was “high polyreactivity”. Regarding “QVQLVESGGGLVQAGGSLRLSCAASGRIFWYYTMGWYRQAPGKERELVASINSDTGTYYADSVKGRFTISRDNAKNTVYLQMNSLKPEDTAVYYCNKDDYALSNTWRPEYDYWGQGTQVTVSS”, the “polyreactivity (PSR sort gate)” value is “low polyreactivity”. As to “QVQLVESGGGLVQAGGSLRLSCAASGRIFYANAMGWYRQAPGKERELVAAISSGGSTYYADSVKGRFTISRDNAKNTVYLQMNSLKPEDTAVYYCATDYQSTSVWGGHFVINPYDYWGQGTQVTVSS”, the “polyreactivity (PSR sort gate)” value is “low polyreactivity”. For “QVQLVESGGGLVQAGGSLRLSCAASGRIFYAYAKGWYRPAPGKEREVVAAITRGGSTYYADSVKGRFTISRDNAKNTVYLQLNCLKREDTAVYSWAAQGYAPPLGESLGYWGEGTQVTVSS” the value was “low polyreactivity”.

Consider “QVQLVESGGGLVQAGGSLRLSCAASGRIFYAYAMGGYRQAPGKERELVASISGGGSTDYADSVKGRFTISRDNAMNTVYLQMNSLKPEDTAVYDCAAKRISYYSYNFDYWGEGTQVTVSS”, for which the “polyreactivity (PSR sort gate)” value is listed as “high polyreactivity”. On to “QVQLVESGGGLVQAGGSLRLSCAASGRIFYAYAMGWYRQAPGKERELVAAISSSGRTYYADSVKGRFTISRDNAKNTVYLQMNSLKPEDTAVYYCAAPGSPYGYWGQGTQVTVSS”, for which the “polyreactivity (PSR sort gate)” value was “high polyreactivity”.

Turning to “QVQLVESGGGLVQAGGSLRLSCAASGRIFYAYAMGWYRQAPGKERELVAAITARGGSTYYADSVKGRFTISRDNAKTTVYLQMNSLKPEDTAVYYCAKDTLLETGYEYWGQGTQVTVSS”, the “polyreactivity (PSR sort gate)” value was “high polyreactivity”. Regarding “QVQLVESGGGLVQAGGSLRLSCAASGRIFYAYTMGRSRQAPGKERELVAAISGSGSTYYADSVKGRFTISRDNAKNTVYLQMNSLKPEDTAVYYCAADVTGGRKYDYWGQGTQVTVSS”, the “polyreactivity (PSR sort gate)” value was “low polyreactivity”. For “QVQLVESGGGLVQAGGSLRLSCAASGRIFYDNTMGWYRQAPGKERELFAAITWRVGNTNYADSVKGRFTISRDNAKNTVYLQMNSLNPEDTAVYYCAVRLLADDGYPAVVGYDYWGQGTQVTVSS”, the “polyreactivity (PSR sort gate)” value is “low polyreactivity”. In the case of “QVQLVESGGGLVQAGGSLRLSCAASGRIFYFNAMGWYRQAPGKERELVADISTGGRTNYADSVKGRFTISRDNAKNTVYLQMNSLNPEDTAVYYCNAEPYTSSGGYRGYDFDYWGQGTQVTVSS”, the “polyreactivity (PSR sort gate)” value is on record as “low polyreactivity”. The result for “QVQLVESGGGLVQAGGSLRLSCAASGRIFYFNTMGWYRQAHGKEIELVAAITRNGGSTYYADSVKWRFTISRDNAKNTVYFQMNSLKPEDTAVYYCNARYRAAKRGKAWYRYDYWGQGTQVTVSS” reads “high polyreactivity”; that for “QVQLVESGGGLVQAGGSLRLSCAASGRIFYFNTMGWYRQAPGKERELVAAITGSGSSTYYADSVKGRFTISRDNAKNTVYLQMNSLKPEDTAVYYCAAYGFSRNGYTYGHDDWGQGTQVTVSS”, “low polyreactivity”; that for “QVQLVESGGGLVQAGGSLRLSCAASGRIFYFYAMGWYRQAPGKERELVAAITSGGGTYYADSVKGRFTISRDNAKNTVYLQMNSLKPEDTAVYYCDVRVYRTSWQGYYYWGQGTQVTVSS”, “high polyreactivity”.

As for “QVQLVESGGGLVQAGGSLRLSCAASGRIFYGNAMGWYRQAPGKERELVAAISKRGGSTHYADSVKGRFTISRDNAKNPVYLQMNSLKPEDTAVDYCATDSYYVGAVHYYYWGQGTQVTVSS”, the “polyreactivity (PSR sort gate)” value is recorded as “high polyreactivity”. For the sequence “QVQLVESGGGLVQAGGSLRLSCAASGRIFYGNAMGWYRQAPGKERELVATISSSGGRTTYADSVKGRFTISRDNAKNTVYLQMNSLKPEDTAVYYCADQGYWTGYDYWGQGTQVTVSS”, the “polyreactivity (PSR sort gate)” value was “high polyreactivity”. As to “QVQLVESGGGLVQAGGSLRLSCAASGRIFYGNAMGWYRQPPGKERELFAGITRSSGTSTYYADSVKVRFTISRDNAKYTVYLQMNSMNPEDTAVYYCAAPPDSYYYYKVPVVPYDYWGQGTQVTVSS”, the “polyreactivity (PSR sort gate)” value was “low polyreactivity”. Regarding “QVQLVESGGGLVQAGGSLRLSCAASGRIFYGNAMGWYRQSPGKERELVASITSSGSTKYADSVKGRFTISRDNAKNTVYLQMNSLKPEDTAVYYCAASSTKRYDTYAGYDYWGQGTQVTVSS”, the “polyreactivity (PSR sort gate)” value is reported as “low polyreactivity”.

In the case of “QVQLVESGGGLVQAGGSLRLSCAASGRIFYGNTLGWYRQAPGKERELVAAISSGGSTNYADSVKGRFTISRDNAKNTVYLQMNSLKPEDTAVYYCAAAGRPGGYVQRDSWGQGTQVTVSS”, the “polyreactivity (PSR sort gate)” value is recorded as “high polyreactivity”. Turning to “QVQLVESGGGLVQAGGSLRLSCAASGRIFYGNTMGWYRPAPGKERELVAAITGSGTSTYYADSVKGRFTISRDNAKNTVYLQMNSLKPEDTAVYYCNADRPVYVDYINGGYGYWGQGTQVTVSS”, the “polyreactivity (PSR sort gate)” value is reported as “low polyreactivity”. As to “QVQLVESGGGLVQAGGSLRLSCAASGRIFYGNTMGWYRQAPGKERELVAAITWRGGSTYYADSVKGRFTISRDNAKITVYLQMNSLKPEDTAVYYCAAVSYRGRGYWGQGTQVTVSS”, the “polyreactivity (PSR sort gate)” value is listed as “high polyreactivity”. Turning to “QVQLVESGGGLVQAGGSLRLSCAASGRIFYGYAMGWYRKAPVKEREFVAAITVSAGSTYYADSVKGRFTISRDNAKNTVYLLMNSLKPEDTAVYYCASKRYVYPSYRFDYWGQGTQVSVSS”, the “polyreactivity (PSR sort gate)” value is “low polyreactivity”. The result for “QVQLVESGGGLVQAGGSLRLSCAASGRIFYGYAMGWYRQAPGKERELVAAISWRGDSTYYADSVKGRFTISRDNAKNTVYLQMNSLKPEDTAVYYCAARRPGYYYPSKFDYWGQGTQVTVSS” reads “high polyreactivity”; that for “QVQLVESGGGLVQAGGSLRLSCAASGRIFYGYAMGWYRQAPGKERELVAAITWIDGSTYYADSVKGRFTISRDNAKNTVYLQMNSLKPEDTAVYFCNKTWYGDSGTRTYWGQVTQVTVSS”, “low polyreactivity”.
